Here are results for 37 molecules from patent US20230279105A1 (SINGLE CELL TECHNOLOGY, published 2023).

Changes are numbered by the printed parent chain.

This assay has as its target T1, Human TIM-3 Human Fc tagged protein (human, fluorescently labeled with HiLyte Fluor 555 (sites not given)).
T1 construct: Bought construct; also called TIM-3 protein tagged with human Fc; ACROBiosystems catalog no: TM3-H5258
The assay can be described thus: capture slide probed with labeled TIM-3-Fc.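 Also: IgG from single CD138-enriched plasma cells, isolated from lymphocytes, immobilized on a derivatized glass slide.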

B1: SCT-Fa118 (antibody, V domains shown)
VH: QVQLQQPGAELVKPGASVKLSCKASGYTFISYWMHWVKQRPGRGLEWIGRIDPNSGDTKYNEKFKSKATLTVDKPSSTAYMQLSSLISEDSAVYYCARWGWDAFAYWGQGTLVTVSA
VL: DAVMTQTPLSLPVSLGDQASISCRSSQSLENSDGNTYLNWYFQKTGQSPQLLIYRVSNRFSGVLDRFSGSGSGTDFTLKISRVEAEDLGVYFCLQVTHVPPTFGAGTKLELK
notes: murine IgG
Take B1: the binding result was “binds”.

B2: SCT-Fa107 (antibody, V domains shown)
VH: QVQLKQSGAELVRPGTSVKLSCKASGYTLTDYYINWVKQRPGQGLEWIARIYPGNGNTYYNEKFKGKATLTAEKSSSTVNMQVSSLTSEDSAVYFCARGGSSDRIYYYAMDYWGQGTSVTVSS
VL: DIQMNQSPSSLSASLGDTITITCHASQNINVWLSWYQQKPGNIPKLLIYKASNLHTGVPSRFSGSGSGTGFTLTISSLQPEDIATYYCQQGQSYPLTFGSGTKLEIK
notes: murine IgG
As for B2, the binding result is listed as “binds”.

B3: SCT-Fa099 (antibody, V domains shown)
VH: B2 VH with T28I
VL: B2 VL
notes: murine IgG
Regarding B3, the binding result is given as “binds”.

B4: SCT-Fa093 (antibody, V domains shown)
VH: B2 VH with Q3H
VL: B2 VL
notes: murine IgG
As for B4, the binding result is recorded as “binds”.

B5: SCT-Fa098 (antibody, V domains shown)
VH: B2 VH with T28I
VL: B2 VL with T74A, E105A, I106L
notes: murine IgG
In the case of B5, the binding result is given as “binds”.

B6: SCT-Fa100 (antibody, V domains shown)
VH: B2 VH with T30I, Y108F
VL: B2 VL
notes: murine IgG
B6: the binding result is “binds”.

B7: SCT-Fa194 (antibody, V domains shown)
VH: B2 VH with K5R
VL: B2 VL with P44L
notes: murine IgG
On to B7, for which the binding result was “binds”.

B8: SCT-Fa097 (antibody, V domains shown)
VH: B2 VH with T28I, Y112H
VL: B2 VL with T20N, S60L
notes: murine IgG
In the case of B8, the binding result is recorded as “binds”.

B9: SCT-Fa109 (antibody, V domains shown)
VH: B2 VH with S84T, V93I, G116V
VL: B2 VL with I106V
notes: murine IgG
Turning to B9, the binding result is given as “binds”.

B10: SCT-Fa104 (antibody, V domains shown)
VH: B2 VH with G66C, S84T, V93I
VL: B2 VL with I106V
notes: murine IgG
For the molecule B10, the binding result is “binds”.

B11: SCT-Fa105 (antibody, V domains shown)
VH: B2 VH with S77N
VL: B2 VL with N42D
notes: murine IgG
As to B11, the binding result is reported as “binds”.

B12: SCT-Fa110 (antibody, V domains shown)
VH: B2 VH with K19R, S84T
VL: B2 VL
notes: murine IgG
Regarding B12, the binding result is recorded as “binds”.

B13: SCT-Fa106 (antibody, V domains shown)
VH: B2 VH with V79A, N80Y, D103V, I105V
VL: B2 VL with P59T
notes: murine IgG
B13: the binding result is recorded as “binds”.

B14: SCT-Fa102 (antibody, V domains shown)
VH: B2 VH with T30N, G56N, S77N, V79A, N80Y, D103V, I105V
VL: B2 VL
notes: murine IgG
For the molecule B14, the binding result is recorded as “binds”.

B15: SCT-Fa103 (antibody, V domains shown)
VH: B2 VH with Y59L, E62A, K65E, K74R, V79A, N80Y, D103V, I105V, Y112F
VL: B2 VL
notes: murine IgG
Take B15: the binding result was “binds”.

B16: SCT-Fa108 (antibody, V domains shown)
VH: B2 VH with S84T, V93I
VL: B2 VL with I106V
notes: murine IgG
Consider B16, for which the binding result is given as “binds”.

B17: SCT-Fa101 (antibody, V domains shown)
VH: B2 VH with T30I
VL: B2 VL
notes: murine IgG
As for B17, the binding result was “binds”.

B18: SCT-Fa111 (antibody, V domains shown)
VH: QVQLKQSGPGLVQPSQSLSITCTVSGFSLISYGVHWVRQSPGKGLEWLGIIWSGGNTDYNAAFISRLSISKDNSKSQVFFKLNSLQADDTAIYYCARTANALDYWGQGTSVTVSS
VL: DVLMTQTPLSLPVSLGDQASISCRSSQTIVHSNGNTYLEWYLQKPGQSPKLLIYKVSNRFSGVPDRFSGSGSGTDFTLKISRVEAEDLGVYYCFQGSHVPWTFGGGTKLEIK
notes: murine IgG
Consider B18, for which the binding result is “binds”.

B19: SCT-Fa116 (antibody, V domains shown)
VH: QVQLQQPGAELVKPGASVKLSCKASGYSFISSWMEWVKQRPGQGLEWIGRIHPSDSDTNYNQKFKAKATLTVDKSSSTAYMQLSSLTSEDSAVYYCAIIHRGFYFAMDYWGQGTSVTVSS
VL: B18 VL with T28S
notes: murine IgG
For the molecule B19, the binding result is reported as “binds”.

B20: SCT-Fa121 (antibody, V domains shown)
VH: QVQLQQPGAELVKPGASVKVSCKASGYTFISHWMYWVRQRPGQGLEWIGRIHPSDSDTDYSQEFKGKATLTVDKSSSTAHMQLSSLTSEDSAVYYCAIWSYYYGSRLDYWGQGTTLTVSS
VL: B18 VL with T7A, L9P, T28N, K44R, F94C, W101Y
notes: murine IgG
In the case of B20, the binding result is on record as “binds”.

B21: SCT-Fa120 (antibody, V domains shown)
VH: QVQLQQPGAELVKPGASVKVSCKASGYSFISYWMYWVKQRPGQGLEWIGRIHPSDSDTNYNQKYKGKATLTVDRSSSTAYMQLSSLTSEDSAVYYCTISHYSGSSPETYWGQGTTLTVSS
VL: B18 VL with T28S, W101Y
notes: murine IgG
For B21, the binding result is given as “binds”.

B22: SCT-Fa119 (antibody, V domains shown)
VH: B19 VH with L20V, A66G
VL: B18 VL with T28S
notes: murine IgG
For the molecule B22, the binding result was “binds”.

B23: SCT-Fa150 (antibody, V domains shown)
VH: B20 VH with L11V, T28S, S105T
VL: B18 VL with L9P, T28N, K44R, F94C, W101Y
notes: murine IgG
Turning to B23, the binding result is “binds”.

B24: SCT-Fa113 (antibody, V domains shown)
VH: QVQLQQPGAEFVKPGASVKLSCEASGNTFTSYWIQWVKQRPGQGLEWIGEIDPSDSYIDYNQKFKDKATLTVDTSSSTAYMHLSSLTSEDSAVYYCAREGAYSSPFAYWGQGTLVTVSA
VL: DILMTQSPSSMSVSLGDTISIICHASQDIRSNIGWLQQKPGKSFKGLIYHGSNLEDGVPSRFSGSGSGADYSLTISSLESEDFADYYCVQYIQFPRTFGGGTKVEIK
notes: murine IgG
For B24, the binding result is listed as “binds”.

B25: SCT-Fa012 (antibody, V domains shown)
VH: EVKLVESEGGLVQPGSSMKLSCTASGFTFSDYYMAWVRQVPEKGLEWVAHINFDGSGTYYLDSLKSRFIISRDNAKNILYLQLSSLKSEDTATYYCARLYDGSHDYWGQGTTLTVSS
VL: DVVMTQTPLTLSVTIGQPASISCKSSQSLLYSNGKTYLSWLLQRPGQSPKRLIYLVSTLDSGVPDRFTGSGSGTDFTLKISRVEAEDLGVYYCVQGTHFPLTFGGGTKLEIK
notes: murine IgG
With B25, the binding result was “binds”.

B26: SCT-Fa015 (antibody, V domains shown)
VH: B25 VH with A75E, N77S
VL: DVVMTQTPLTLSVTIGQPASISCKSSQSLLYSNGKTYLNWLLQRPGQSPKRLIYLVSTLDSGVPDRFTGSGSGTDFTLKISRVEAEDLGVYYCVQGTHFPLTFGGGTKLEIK
notes: murine IgG
As to B26, the binding result is given as “binds”.

B27: SCT-Fa019 (antibody, V domains shown)
VH: B25 VH with A35S, H50N, L83M, K87R, T111S, T112A
VL: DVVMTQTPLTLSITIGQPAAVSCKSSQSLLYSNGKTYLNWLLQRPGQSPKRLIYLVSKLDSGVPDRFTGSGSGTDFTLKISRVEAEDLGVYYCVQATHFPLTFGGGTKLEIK
notes: murine IgG
In the case of B27, the binding result is on record as “binds”.

B28: SCT-Fa017 (antibody, V domains shown)
VH: B25 VH with H50N, L83M
VL: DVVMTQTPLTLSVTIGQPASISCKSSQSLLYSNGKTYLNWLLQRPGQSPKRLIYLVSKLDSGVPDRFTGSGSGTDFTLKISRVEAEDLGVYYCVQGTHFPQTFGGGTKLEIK
notes: murine IgG
With B28, the binding result is “binds”.

B29: SCT-Fa010 (antibody, V domains shown)
VH: B25 VH with V48I, H50N, L83M, H104L
VL: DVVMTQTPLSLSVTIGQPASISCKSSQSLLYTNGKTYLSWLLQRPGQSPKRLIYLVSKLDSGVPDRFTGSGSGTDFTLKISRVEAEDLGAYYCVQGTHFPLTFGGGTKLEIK
notes: murine IgG
In the case of B29, the binding result is on record as “binds”.

B30: SCT-Fa016 (antibody, V domains shown)
VH: B25 VH with A75T
VL: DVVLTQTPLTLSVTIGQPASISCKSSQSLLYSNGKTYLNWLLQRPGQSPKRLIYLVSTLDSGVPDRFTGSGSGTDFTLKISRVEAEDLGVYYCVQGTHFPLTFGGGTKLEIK
notes: murine IgG
Regarding B30, the binding result is listed as “binds”.

B31: SCT-Fa013 (antibody, V domains shown)
VH: B25 VH with A92G
VL: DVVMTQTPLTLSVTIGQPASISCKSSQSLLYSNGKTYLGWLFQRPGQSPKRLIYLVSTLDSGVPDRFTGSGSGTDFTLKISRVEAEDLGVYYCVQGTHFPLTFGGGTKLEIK
notes: murine IgG
For the molecule B31, the binding result is “binds”.

B32: SCT-Fa014 (antibody, V domains shown)
VH: B25 VH with A92G
VL: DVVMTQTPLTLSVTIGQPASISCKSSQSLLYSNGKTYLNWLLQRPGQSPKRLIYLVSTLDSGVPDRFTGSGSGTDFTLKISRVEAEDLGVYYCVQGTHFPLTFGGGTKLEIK
notes: murine IgG
Regarding B32, the binding result is “binds”.

B33: SCT-Fa011 (antibody, V domains shown)
VH: B25 VH
VL: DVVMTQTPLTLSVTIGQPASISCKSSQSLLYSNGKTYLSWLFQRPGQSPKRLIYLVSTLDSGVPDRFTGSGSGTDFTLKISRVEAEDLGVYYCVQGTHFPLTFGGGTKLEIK
notes: murine IgG
As for B33, the binding result is “binds”.

B34: SCT-Fa127 (antibody, V domains shown)
VH: QVQLQQPGAELVMPGASVKLSCKASGYTFTTYWMHWVKQRPGQGLEWIGEIDPSDGYSNYNQNFKGKATLTVDKSSSTAYLQLSSLTSEDSAVYYCARNYGSNYVGYFDYWGQGTTLTVSS
VL: DIQMTQTTSSLSASLGDRVTISCRSSQDISNYLNWYQQKPDGTVKLLIYYTSRLHSGVPSSFSGSGSGTDYSLTISNLEQEDIATYFCQQANALPWTFGGGTKLEIK
notes: murine IgG
Consider B34, for which the binding result was “binds”.

B35: SCT-Fa123 (antibody, V domains shown)
VH: B34 VH with T30N, G56S, S58T, K65N
VL: B34 VL with S25A, H55P, N92K
notes: murine IgG
As to B35, the binding result is given as “binds”.

B36: SCT-Fa124 (antibody, V domains shown)
VH: B34 VH with T30S, G56S, S58T, L81M, Y110H, Q113R
VL: B34 VL with S25A, E79A, A91G
notes: murine IgG
In the case of B36, the binding result is recorded as “binds”.

B37: SCT-Fa122 (antibody, V domains shown)
VH: B34 VH with K23E, Y32F, M34I, G56S, S58T
VL: B34 VL with S25A, T85I
notes: murine IgG
In the case of B37, the binding result was “binds”.
